Experimental data as given in patent US20240043495A1, “DSG2 COMPOSITIONS AND METHODS FOR THE TREATMENT OF COVID-19” (priority 2020, published 2024).

Experiments:
Anti-DSG2 antibody [1] = assay: anti-DSG2 antibody MSD assay; inhibition of the signal of anti-DSG2 antibody at 200 ng/mL (control)
Anti-DSG2 antibody [2] = assay: anti-DSG2 antibody MSD assay; inhibition of the signal of anti-DSG2 antibody at 1000 ng/mL (control)
[3] = tested on: human iPSC cardiomyocytes; assay: CiPA multielectrode array (MEA) assay, cardiomyocyte sodium spike; assay type: cell-based; conditions: voltage (μV) at 0-96 hours; antibodies/IgG 0.5 μg/mL; lidocaine 10 μM; FIG. 5
Procedure: To determine the effect of anti-DSG2 antibodies in cardiomyocytes, the cardiac in vitro proarrhythmia (CiPA) assay was performed (Sager et al. Am Heart J 2014; 167:292-300; the contents of which are herein incorporated by reference in its entirety). CiPA is envisioned to consist of four components: (1) an evaluation of the effects of test agents on cardiac ion channel assays; (2) in silico modeling of the cardiac action potential based on the ion channel results to integrate the data with cardiac function; (3) experimental measurement of test agent effects in human ventricular myocytes to confirm the modeling result; and (4) scoring the results. […] The sodium spike quantified below is a measurement of the specific sodium channel current in the cardiomyocyte and is also described in Blinova K, et al. Cell Rep. […] The parameters evaluated include measuring a change in the spike in the component of electrical signal propagation (e.g. sodium spike) and cell index—a function of cell impedance and cell number. […]
Commercially available anti-DSG2 antibodies were tested in the cardiomyocyte CiPA assay. […] The voltage (μV) is measured at time intervals of 0, 1 hour, 12 hours, 24 hours, 48 hours, 72 hours, and 96 hours. […]

[4] = tested on: human iPSC cardiomyocytes; assay: iPSC-derived cardiomyocyte MEA assay, cell index; assay type: cell-based; conditions: antibodies 0.00005 to 5 μg/mL; lidocaine 3 to 100 μM
Procedure: To determine the effect of anti-DSG2 antibodies in cardiomyocytes, the cardiac in vitro proarrhythmia (CiPA) assay was performed (Sager et al. Am Heart J 2014; 167:292-300; the contents of which are herein incorporated by reference in its entirety). CiPA is envisioned to consist of four components: (1) an evaluation of the effects of test agents on cardiac ion channel assays; (2) in silico modeling of the cardiac action potential based on the ion channel results to integrate the data with cardiac function; (3) experimental measurement of test agent effects in human ventricular myocytes to confirm the modeling result; and (4) scoring the results. The multielectrode array (MEA) assay is a component of CiPA which uses human induced pluripotent stem cell (iPSC)-derived cardiomyocytes to evaluate two-dimensional excitation propagation by recording spontaneous ECG-like field potentials. The sodium spike quantified below is a measurement of the specific sodium channel current in the cardiomyocyte and is also described in Blinova K, et al. Cell Rep. 2018 Sep. 25; 24(13):3582-3592 (the contents of which are herein incorporated by reference in its entirety). […] The parameters evaluated include measuring a change in the spike in the component of electrical signal propagation (e.g. sodium spike) and cell index—a function of cell impedance and cell number. […]

[5] = tested on: anti-DSG2 antibodies in sera of post-COVID-19 patients; assay: Electrochemical immunoassay: blocking of post-COVID-19 patient sera binding to the DSG2 extracellular domain; set-up: species or system human; conditions: fusion polypeptide 10 μg/mL, post-COVID-19 patient sera 10% (v/v), FIG. 3
Procedure: DSG2 fusion polypeptides were investigated for the ability to block the binding of anti-DSG2 antibodies in sera of post-COVID-19 patients to the DSG2 extracellular domain in an electrochemical immunoassay. The fusion polypeptides were added to a final concentration of 10 μg/mL and patient sera were used at a final concentration of 10% (v/v). The results are shown in the series of bar charts in FIG. 3, where the numbers 001, 002, 003, 004, 005 and 006 indicate individual post-COVID-19 patient serum samples.
In FIG. 3, the first data series from the left is for DSG2FP #1 (described above as amino acids 49-608 of SEQ ID NO:30; Linker (IEGRMD (SEQ ID NO: 28)); amino acids 100-330 of IgG1 (SEQ ID NO: 4). The second data series from the left is for DSG2(50-602)-6xHis, which is a fusion polypeptide of DSG2 amino acids 50-602 of SEQ ID NO: 1 (complete extracellular domain) to a hexahistidine peptide tag. The third data series from the left is for a combination of fusion polypeptides which includes EC1(50-155)-6xHis, a fusion of DSG2 amino acids 50-155 of SEQ ID NO: 1 (EC1) to a hexahistidine peptide tag and EC2(151-268)-6xHis, a fusion of DSG2 amino acids 151-268 of SEQ ID NO: 1 (EC2) to a hexahistidine peptide tag. The fourth data series from the left is for EA(491-602)-6xHis, a fusion of DSG2 amino acids 491-602 of SEQ ID NO: 1 (EA) to a hexahistidine peptide tag. […]

recombinant human desmoglein-2 Fc chimera protein, CF (R&D Systems) (Fc fusion)
% inhibition (Anti-DSG2 antibody [1]): 63.8% | % inhibition (Anti-DSG2 antibody [2]): 88.4%

CCN(CC)CC(=O)Nc1c(C)cccc1C [Lidocaine, lidocaine]
effect on cardiomyocyte sodium spike [3]: dampen the sodium spike | effect on cell index (in words) [4]: marked reduction in cell index and likely cell death

B1: DSG2(50-602)-6xHis: fusion polypeptide of DSG2 amino acids 50-602 of SEQ ID NO: 1 (complete extracellular domain) to a hexahistidine peptide tag (protein, listed as Homo sapiens)
chain: AWITAPVALREGEDLSKKNPIAKIHSDLAEERGLKITYKYTGKGITEPPFGIFVFNKDTGELNVTSILDREETPFFLLTGYALDARGNNVEKPLELRIKVLDINDNEPVFTQDVFVGSVEELSAAHTLVMKINATDADEPNTLNSKISYRIVSLEPAYPPVFYLNKDTGEIYTTSVTLDREEHSSYTLTVEARDGNGEVTDKPVKQAQVQIRILDVNDNIPVVENKVLEGMVEENQVNVEVTRIKVFDADEIGSDNWLANFTFASGNEGGYFHIETDAQTNEGIVTLIKEVDYEEMKNLDFSVIVANKAAFHKSIRSKYKPTPIPIKVKVKNVKEGIHFKSSVISIYVSESMDRSSKGQIIGNFQAFDEDTGLPAHARYVKLEDRDNWISVDSVTSEIKLAKLPDFESRYVQNGTYTVKIVAISEDYPRKTITGTVLINVEDINDNCPTLIEPVQTICHDAEYVNVTAEDLDGHPNSGPFSFSVIDKPPGMAEKWKIARQESTSVLLQQSEKKLGRSEIQFLISDNQGFSCPEKQVLTLTVCECLHGSGCREA
modifications: C-terminal hexahistidine tag
blocking activity (% inhibition) ([5]; 100% inhibition = complete blocking): at least 70%

B2: EA(491-602)-6xHis: fusion of DSG2 amino acids 491-602 of SEQ ID NO: 1 (EA) to a hexahistidine peptide tag (protein, listed as Homo sapiens)
chain: DINDNCPTLIEPVQTICHDAEYVNVTAEDLDGHPNSGPFSFSVIDKPPGMAEKWKIARQESTSVLLQQSEKKLGRSEIQFLISDNQGFSCPEKQVLTLTVCECLHGSGCREA
modifications: C-terminal 6xHis tag
blocking activity (in words) [5]: some effectiveness in blocking activity
